Source: the RNAGym collection of RNA variant scans (doi:10.1073/pnas.2313332121)
Variants at the floor of the assay were thinned out.

B1: TPR 5TU (parent)
chain: GGAUCUUCUCGAUCUAACAAAAAAGACAAAUCUGCCACAAAGCUUGAGAGCAUCUUCGGAUGCAGAGGCGGCAGCCUUCGGUGGCGCGAUAGCGCCAACGUUCUCAACUAUGACACGCAAAACGCGUGCUCCGUUGAAUGGAGUUUAUCAUG

Variants of: B1
Experiment: polymerase ribozyme fitness, log enrichment relative to wild type (log ratio); higher = more active; in vitro selection for triplet polymerase activity
Summary of the method: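 After PCR construction and transcription, each subunit's mutant library from a heterodimeric triplet polymerase ribozyme was annealed with a biotinylated primer, the partner subunit and triplets. Incubation was frozen, at −7 °C, and extended constructs were gel-excised, bound to streptavidin beads and amplified by RT-PCR, in one selection round done in triplicate. Fitness is the logarithm of a genotype's enrichment divided by that of the wild type, from inverse-variance-weighted replicate averages of Illumina-sequenced inputs and outputs. The base of the logarithm is 2, and genotypes needed ≥10 input reads and ≥1 read per output.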

Variant	polymerase ribozyme fitness (log ratio)
A29U G92A A142C	≤ -4.2
A29C G58U	-4.16
A29C G58C	-3.97
A29U C63U C114U	≤ -4.2
A29U G70U G71A C87U U90A A106U	≤ -4.2
A29U	-3.4
A29G	-1.81
A29G A30C G59C U90G C95G G133U	≤ -4.2
A29G U45C A52C U53G U134C G136U	≤ -4.2
A29C U44G U55A G68A G71U G80A C93A A98U A138C	≤ -4.2
A29C C38G G65U U77A G81C A137G	≤ -4.2
A29C A89G C95G U139C G140A G141U A142C	≤ -4.2
A29U A41U A47C C114G C132U	≤ -4.2
A29U A52U U53A G80A C87A G128U U146C	≤ -4.2
A29G U90G A122U A142U C149G	≤ -4.2
A29U C35A A60G C85A G126A	≤ -4.2
A29U G94U C149G	≤ -4.2
A29C U53A A73C G84C C103G A107U U134G	≤ -4.2
A29U C36U	≤ -4.2
A29G G42A G81A C85U	-4.09
A29U G50U C116U A147U	-4.04

Variant	polymerase ribozyme fitness (log ratio)
A29G A49C G67A C114U U127G	≤ -4.2
A29U G48A C87G A121G G141C G152U	≤ -4.2
A29U G46A U61A U78G C87G A89C G124U U148G	≤ -4.2
A29G C43U A66C C96U C103A	≤ -4.2
A29G A30C G86U A137U	≤ -4.2
A29G U78G G84C	≤ -4.2
A29U G86A A97G A142U G143A	≤ -4.2
A29G C105G U146G	≤ -4.2
A29U A41C U61A G67U G86U G92A C93A G133C	≤ -4.2
A29G C38U U53G C85G A98U C108A G128U	-3.97
A29C C95A G117U G126U G141C G143C	≤ -4.2
A29C G62U G80C C118A	≤ -4.2
A29U G46U G59A G70A A89U G117U U148A	≤ -4.2
A29G G84U G117A	≤ -4.2
A29C G50C C114U	≤ -4.2
A29G C96A	-3.46
A29U A41C A52C C87U U102C G136A G143C U146A	≤ -4.2
A29G A60G G92C C116G A121G	≤ -4.2
A29U U44C U45A C57A A64G C76A C95A A150C	≤ -4.2
A29U C36U G62A U109G	≤ -4.2
A29U A66U C79A G83A C96A A142U	≤ -4.2

Variant	polymerase ribozyme fitness (log ratio)
A29U U45A G70A C85G	≤ -4.2
A29U U53G G81A G88C	≤ -4.2
A29C C35U G50C G58U U61G C96A U134A	≤ -4.2
A29G A37U A47U U55A G84U A89G A120C G140C U144G	≤ -4.2
A29U A137G	≤ -4.2
A29G A30U C85A A107U C118G	≤ -4.2
A29C U53A	≤ -4.2
A29U C76G G84U C96A A122U U144A	≤ -4.2
A29U C96U	-3.19
A29G C35G G84C G100A	≤ -4.2
A29G U31A C43G	≤ -4.2
A29U G48U U61G G83C	≤ -4.2
A29G C57A G58U C95U C125G	≤ -4.2
A29U A73G C93A G128U G140U	≤ -4.2
A29G U55G C57G C87A A107G	≤ -4.2
A29G G70A A120U G143A A150C	≤ -4.2
A29G C131U	≤ -4.2
A29G C35G U56G G68A G81A C99A C114A G143C	≤ -4.2
A29C G50U G81A C95A G133U	≤ -4.2
A29U A41U U53G G88U A89G G117A	≤ -4.2
A29C C54A G70U	≤ -4.2

Variant	polymerase ribozyme fitness (log ratio)
A29U C99A	-4.17
A29G C51G U56A C93A C95G C149G G152A	≤ -4.2
A29U C32A A41U G71C C85U C87U A98C	≤ -4.2
A29U A52C	≤ -4.2
A29C G92A G143C U146C	≤ -4.2
A29U C35G C95G	-4.03
A29U A142G C149U	≤ -4.2
A29C C87G G117A	≤ -4.2
A29G C93A A122G G124A	≤ -4.2
A29U A39U U55A C79A C93G	≤ -4.2
A29U C69A G84A G141A	≤ -4.2
A29G A47C G70A C85G A89U A138C A142U	≤ -4.2
A29G A89U C96U A115C A121C G143U	≤ -4.2
A29C A52G U55A C75G A106U A110G A121U U127A	≤ -4.2
A29C G94A A110U G124A A147U	≤ -4.2
A29U C32U A122G	≤ -4.2
A29G U31A C96U C114U G140C	≤ -4.2
A29G A47U A49U G94A C131U	≤ -4.2
A29G A37U G94C G141U	≤ -4.2
A29C U44A A52U G58A C118A	≤ -4.2
